Measured values published in publication PMC7322680 (Biochemistry and Biophysics Reports, 2020).
“And” between values parts separate entries of the source, which are not always exact repeats. Equal entries are not always repeated.

Key:
SEC = molecular target: the molecule itself; assay: SEC
SEC-MALS = molecular target: the molecule itself; assay: SEC-MALS

B1: human podocin domain (residues 126-350) (domain or fragment, UniProt Q9NP85 126-350, looked up)
chain: KVVQEYERVIIFRLGHLLPGRAKGPGLFFFLPCLDTYHKVDLRLQTLEIPFHEIVTKDMFIMEIDAICYYRMENASLLLSSLAHVSKAVQFLVQTTMKRLLAHRSLTEILLERKSIAQDAKVALDSVTCIWGIKVERIEIKDVRLPAGLQHSLAVEAEAQRQAKVRMIAAEAEKAASESLRMAAEILSGTPAAVQLRYLHTLQSLSTEKPSTVVLPLPFDLLNCL
stoichiometry N (SEC): 16
stoichiometry N (SEC-MALS): ~16 and 25 and 13
